We go through three compounds from PMC10101081, “EBR-5, a Novel Variant of Metallo-β-Lactamase EBR from Multidrug-Resistant Empedobacter stercoris” (Microbiology Spectrum, 2023).

Series [1] has as its system CC(=O)OCC1=C(C(=O)O)N2C(=O)[C@@H](NC(=O)Cc3cccs3)[C@H]2SC1. Put plainly: steady-state hydrolysis kinetics, Michaelis-Menten fit. It is filed as biochemical, Empedobacter stercoris. An excerpt:
(§1) steady-state hydrolysis kinetics, Michaelis-Menten fit on EBR-5

Series [2] relates to CC(C)(O/N=C(\C(=O)N[C@@H]1C(=O)N2C(C(=O)[O-])=C(C[n+]3ccccc3)CS[C@H]12)c1csc(N)n1)C(=O)O. The description is as above. The series is classed as biochemical, Empedobacter stercoris.
Source text: as §1

Series [3] deals with CC1(C)S[C@@H]2[C@H](NC(=O)Cc3ccccc3)C(=O)N2[C@H]1C(=O)O. Described as above. The series is classed as biochemical, Empedobacter stercoris.
Source text: as §1

Series [4] relates to CC1(C)S[C@@H]2[C@H](NC(=O)[C@H](N)c3ccccc3)C(=O)N2[C@H]1C(=O)O. The series is described as above. The series is classed as biochemical, Empedobacter stercoris.
Source text: as §1

The subject of series [5] is CO/N=C(\C(=O)N[C@@H]1C(=O)N2C(C(=O)O)=C(COC(C)=O)CS[C@H]12)c1csc(N)n1. The series is described as above. The series is classed as biochemical, Empedobacter stercoris.
Source text: as §1

Series [6] has as its system CO/N=C(\C(=O)N[C@@H]1C(=O)N2C(C(=O)O)=C(COC(N)=O)CS[C@H]12)c1ccco1. The description is as above. It is filed as biochemical, Empedobacter stercoris.
Source text: as §1

The subject of series [7] is CO/N=C(\C(=O)N[C@@H]1C(=O)N2C(C(=O)[O-])=C(C[N+]3(C)CCCC3)CS[C@H]12)c1csc(N)n1. The series is described as above. It is filed as biochemical, Empedobacter stercoris.
Source text: as §1

The subject of series [8] is CO[C@@]1(NC(=O)Cc2cccs2)C(=O)N2C(C(=O)O)=C(COC(N)=O)CS[C@@H]21. Described as above. It is filed as biochemical, Empedobacter stercoris.
Source text: as §1

For series [9], the system named is C[C@@H](O)[C@H]1C(=O)N2C(C(=O)O)=C(SCCN=CN)C[C@H]12. Described as above. The series is classed as biochemical, Empedobacter stercoris.
Source text: as §1

The subject of series [10] is C[C@@H](O)[C@H]1C(=O)N2C(C(=O)O)=C(S[C@@H]3CN[C@H](C(=O)N(C)C)C3)[C@H](C)[C@H]12. The description is as above. The series is classed as biochemical, Empedobacter stercoris.
Source text: as §1

The test system of series [11] is C[C@@H](O)[C@H]1C(=O)N2C(C(=O)O)=C(S[C@@H]3CN[C@H](C(=O)Nc4cccc(C(=O)O)c4)C3)[C@H](C)[C@H]12. Described as above. It is filed as biochemical, Empedobacter stercoris.
Source text: as §1

Series [12] concerns C[C@@H](O)[C@H]1C(=O)N2C(C(=O)O)=C(S[C@@H]3CN[C@H](CNS(N)(=O)=O)C3)[C@H](C)[C@H]12. The description is as above. The series is classed as biochemical, Empedobacter stercoris.
Source text: as §1

In series [13] the test system is O=C(Cc1cccs1)N[C@@H]1C(=O)N2C(C(=O)O)=C(/C=C/c3ccc([N+](=O)[O-])cc3[N+](=O)[O-])CS[C@H]12. The description is as above. The series is classed as biochemical, Empedobacter stercoris.
Source text: as §1

The target in another series is T1, EBR-5 (Empedobacter stercoris, UniProt A0ABX1WID8).
T1 construct: gene bla; 234-residue precursor; N-terminal signal peptide removed (predicted cleavage between 17 and 18, AFG-QI)
Put plainly: beta-lactamase inhibition assay. The series is classed as biochemical.

Regarding EBR-5 (Empedobacter stercoris), the Km was determined as 64 ± 6.4 µM in [1]; 567 ± 76 µM in series [2]; 116 ± 16 µM in [3]; 207 ± 21 µM in [4]; 29 ± 3.9 µM in [5]; 19 ± 2.3 µM in series [6]. In addition, the Km in series [7] was 1,058 ± 58 μM; in series [8], 182 ± 12 µM; in series [9] it was 1,218 ± 147 μM; in series [10], 626 ± 61 µM; in series [11], 1,507 ± 175 μM; in [12], 1,283 ± 161 μM. For the same compound, the Michaelis constant (Km) in [13] was found to be 15 ± 1.7 µM. The turnover number (kcat) came to 27 ± 0.8 s⁻¹ in series [1]; 0.9 ± 0.09 s⁻¹ in series [2]; 86 ± 2.8 s⁻¹ in series [3]; 118 ± 3.3 s⁻¹ in series [4]; 2.8 ± 0.1 s⁻¹ in series [5]; 2.1 ± 0.07 s⁻¹ in series [6]. Moreover, the kcat is 0.1 ± 0.01 s⁻¹ in [7]; 1.5 ± 0.04 s⁻¹ in [8]; 124 ± 10 s⁻¹ in [9]; 147 ± 8.3 s⁻¹ in series [10]; 151 ± 13 s⁻¹ in series [11]; 145 ± 14 s⁻¹ in [12]. Also, in series [13], the kcat worked out at 18 ± 0.5 s⁻¹. Further, the kcat/Km in [1] was determined as 419000 M⁻¹ s⁻¹; in [2] it was 1600 M⁻¹ s⁻¹; in [3] it was 745000 M⁻¹ s⁻¹; in [4] it was 572000 M⁻¹ s⁻¹; in series [5], 94000 M⁻¹ s⁻¹; in series [6] it was 111000 M⁻¹ s⁻¹. For the same compound, the specificity constant (kcat/Km) in series [7] amounted to 100 M⁻¹ s⁻¹; in series [8], 8500 M⁻¹ s⁻¹; in series [9], 102000 M⁻¹ s⁻¹; in series [10] it was 236000 M⁻¹ s⁻¹; in series [11], 100000 M⁻¹ s⁻¹; in series [12], 113000 M⁻¹ s⁻¹. Also, the kcat/Km in series [13] came to 1.17e+06 M⁻¹ s⁻¹.
Consider `O=C(O)[C@H]1/C(=C/CO)O[C@@H]2CC(=O)N21` [clavulanic acid], for which, on EBR-5, the half-inhibitory concentration (IC50) is greater than 2000 µM.
Still for that read-out and setting: next, `O=C(O)CN(CCN(CC(=O)O)CC(=O)O)CC(=O)O` [EDTA]: 130 µM.

The term Km denotes the substrate concentration at which the rate is half of its maximum. As a reminder, the kcat is the number of substrate molecules converted per active site and unit of time at saturation. By kcat/Km is commonly meant the second-order rate constant that governs catalysis at low substrate concentration. What is called IC50 is the concentration needed to halve the response being measured.
